Key:
Assay in all cases: Kinase Profiling Assay
Type in all cases: biochemical
Conditions in all cases: 100 μM
EphA7(h) = EphA7(h) (Homo sapiens, UniProt Q15375)
CaMKIIβ(h) = CaMKIIβ(h) (Homo sapiens, UniProt Q13554)
Lyn(h) = Lyn(h) (Homo sapiens, UniProt P07948)
ZIPK(h) = ZIPK(h) (Homo sapiens, UniProt O43293)
EphA8(h) = target: T1, EphA8(h) (Homo sapiens, UniProt P29322)
T1 sequence (P29322 28-1005): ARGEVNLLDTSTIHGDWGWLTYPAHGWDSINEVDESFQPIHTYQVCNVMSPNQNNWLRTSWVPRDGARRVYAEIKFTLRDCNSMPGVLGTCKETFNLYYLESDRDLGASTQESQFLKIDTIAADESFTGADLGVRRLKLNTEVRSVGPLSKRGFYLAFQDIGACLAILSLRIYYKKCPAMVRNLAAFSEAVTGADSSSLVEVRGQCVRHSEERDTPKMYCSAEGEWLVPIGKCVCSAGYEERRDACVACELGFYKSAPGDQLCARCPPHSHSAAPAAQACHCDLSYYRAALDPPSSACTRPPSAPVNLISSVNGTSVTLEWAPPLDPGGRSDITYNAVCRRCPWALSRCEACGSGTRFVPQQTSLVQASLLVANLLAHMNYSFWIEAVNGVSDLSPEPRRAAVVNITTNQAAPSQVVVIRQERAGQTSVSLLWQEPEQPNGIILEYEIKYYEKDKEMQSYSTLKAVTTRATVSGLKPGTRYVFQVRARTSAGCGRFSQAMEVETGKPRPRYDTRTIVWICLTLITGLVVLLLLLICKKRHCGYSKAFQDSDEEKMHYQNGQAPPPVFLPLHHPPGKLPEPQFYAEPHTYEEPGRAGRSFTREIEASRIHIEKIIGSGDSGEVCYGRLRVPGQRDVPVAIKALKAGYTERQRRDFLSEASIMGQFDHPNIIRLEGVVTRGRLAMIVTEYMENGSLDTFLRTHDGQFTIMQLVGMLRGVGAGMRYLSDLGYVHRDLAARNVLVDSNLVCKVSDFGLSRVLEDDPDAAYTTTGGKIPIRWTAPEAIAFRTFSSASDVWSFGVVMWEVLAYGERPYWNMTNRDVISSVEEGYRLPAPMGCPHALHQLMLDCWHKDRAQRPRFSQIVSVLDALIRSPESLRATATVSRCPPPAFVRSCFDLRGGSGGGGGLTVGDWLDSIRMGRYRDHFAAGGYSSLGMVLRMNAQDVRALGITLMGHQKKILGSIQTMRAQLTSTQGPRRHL

TAO3(h) = target: T2, TAO3(h) (Homo sapiens, UniProt Q9H2K8)
T2 sequence (Q9H2K8 1-898): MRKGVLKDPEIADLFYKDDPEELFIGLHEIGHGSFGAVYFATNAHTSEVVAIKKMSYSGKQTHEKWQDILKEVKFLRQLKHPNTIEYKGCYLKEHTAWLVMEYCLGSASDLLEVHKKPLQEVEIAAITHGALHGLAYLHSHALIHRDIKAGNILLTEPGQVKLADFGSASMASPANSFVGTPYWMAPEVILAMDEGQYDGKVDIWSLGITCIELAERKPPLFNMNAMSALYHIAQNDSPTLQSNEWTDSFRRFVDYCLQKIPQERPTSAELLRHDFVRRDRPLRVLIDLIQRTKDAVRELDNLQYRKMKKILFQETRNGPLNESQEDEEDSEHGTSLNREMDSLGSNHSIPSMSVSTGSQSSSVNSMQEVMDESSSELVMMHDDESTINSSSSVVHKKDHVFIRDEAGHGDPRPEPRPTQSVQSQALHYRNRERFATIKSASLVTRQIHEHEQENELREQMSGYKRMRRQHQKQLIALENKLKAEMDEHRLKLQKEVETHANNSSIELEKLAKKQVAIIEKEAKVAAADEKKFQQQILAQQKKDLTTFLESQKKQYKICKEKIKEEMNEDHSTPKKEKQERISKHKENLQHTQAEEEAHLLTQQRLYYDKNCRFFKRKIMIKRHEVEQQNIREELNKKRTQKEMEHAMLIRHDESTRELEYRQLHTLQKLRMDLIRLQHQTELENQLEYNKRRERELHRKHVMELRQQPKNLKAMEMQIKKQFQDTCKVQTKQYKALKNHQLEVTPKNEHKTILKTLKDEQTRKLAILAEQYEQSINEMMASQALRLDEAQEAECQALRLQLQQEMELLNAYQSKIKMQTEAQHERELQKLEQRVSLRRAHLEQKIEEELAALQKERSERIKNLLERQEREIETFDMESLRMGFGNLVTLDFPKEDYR

MSK1(h) = MSK1(h) (Homo sapiens, UniProt O75582)
Tec(h) activated = target: T3, Tec(h) activated (Homo sapiens, UniProt P42680)
T3 sequence (P42680 1-631): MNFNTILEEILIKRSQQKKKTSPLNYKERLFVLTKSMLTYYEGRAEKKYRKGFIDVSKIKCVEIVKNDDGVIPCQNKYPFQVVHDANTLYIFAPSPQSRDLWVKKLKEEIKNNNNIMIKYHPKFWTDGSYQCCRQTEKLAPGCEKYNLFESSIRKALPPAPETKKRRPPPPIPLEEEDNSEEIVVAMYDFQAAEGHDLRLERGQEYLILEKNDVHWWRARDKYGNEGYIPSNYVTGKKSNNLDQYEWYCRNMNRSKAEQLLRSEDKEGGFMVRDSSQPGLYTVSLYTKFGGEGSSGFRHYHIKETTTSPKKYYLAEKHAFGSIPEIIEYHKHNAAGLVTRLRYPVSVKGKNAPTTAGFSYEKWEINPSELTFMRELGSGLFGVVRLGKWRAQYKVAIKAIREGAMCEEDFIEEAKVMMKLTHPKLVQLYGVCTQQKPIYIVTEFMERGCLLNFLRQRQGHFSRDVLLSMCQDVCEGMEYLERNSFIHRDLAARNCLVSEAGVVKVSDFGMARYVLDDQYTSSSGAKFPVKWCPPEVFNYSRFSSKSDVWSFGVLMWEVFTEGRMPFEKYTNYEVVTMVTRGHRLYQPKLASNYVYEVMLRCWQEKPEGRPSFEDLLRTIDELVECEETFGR

BRK(h) = BRK(h) (Homo sapiens, UniProt Q13882)
BRK(h), sequence (Q13882 whole entry): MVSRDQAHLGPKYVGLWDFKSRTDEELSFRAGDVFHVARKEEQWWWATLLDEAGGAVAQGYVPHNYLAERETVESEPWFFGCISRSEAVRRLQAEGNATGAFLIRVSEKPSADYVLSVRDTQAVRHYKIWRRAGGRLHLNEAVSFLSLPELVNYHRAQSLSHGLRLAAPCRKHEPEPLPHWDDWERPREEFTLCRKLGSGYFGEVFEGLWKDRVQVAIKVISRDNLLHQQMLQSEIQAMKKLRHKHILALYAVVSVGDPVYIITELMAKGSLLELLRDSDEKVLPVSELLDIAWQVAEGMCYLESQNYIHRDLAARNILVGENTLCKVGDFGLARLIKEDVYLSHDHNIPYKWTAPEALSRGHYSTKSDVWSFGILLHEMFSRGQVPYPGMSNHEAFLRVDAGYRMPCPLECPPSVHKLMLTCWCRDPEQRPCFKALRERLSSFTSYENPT

ZIPK(h), sequence (O43293 whole entry): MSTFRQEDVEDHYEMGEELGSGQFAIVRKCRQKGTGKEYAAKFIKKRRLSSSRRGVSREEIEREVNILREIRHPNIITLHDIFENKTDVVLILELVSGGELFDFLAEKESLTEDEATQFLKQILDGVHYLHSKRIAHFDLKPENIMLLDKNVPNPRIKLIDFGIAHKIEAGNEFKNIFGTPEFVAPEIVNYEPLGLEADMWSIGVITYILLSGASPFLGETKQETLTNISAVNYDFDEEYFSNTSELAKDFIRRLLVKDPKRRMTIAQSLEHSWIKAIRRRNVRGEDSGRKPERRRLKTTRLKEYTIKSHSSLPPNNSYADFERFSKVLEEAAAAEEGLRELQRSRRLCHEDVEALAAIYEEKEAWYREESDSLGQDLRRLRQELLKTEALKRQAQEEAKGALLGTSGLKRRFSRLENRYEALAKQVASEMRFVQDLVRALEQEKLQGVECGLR
EphA7(h), sequence (Q15375 28-998): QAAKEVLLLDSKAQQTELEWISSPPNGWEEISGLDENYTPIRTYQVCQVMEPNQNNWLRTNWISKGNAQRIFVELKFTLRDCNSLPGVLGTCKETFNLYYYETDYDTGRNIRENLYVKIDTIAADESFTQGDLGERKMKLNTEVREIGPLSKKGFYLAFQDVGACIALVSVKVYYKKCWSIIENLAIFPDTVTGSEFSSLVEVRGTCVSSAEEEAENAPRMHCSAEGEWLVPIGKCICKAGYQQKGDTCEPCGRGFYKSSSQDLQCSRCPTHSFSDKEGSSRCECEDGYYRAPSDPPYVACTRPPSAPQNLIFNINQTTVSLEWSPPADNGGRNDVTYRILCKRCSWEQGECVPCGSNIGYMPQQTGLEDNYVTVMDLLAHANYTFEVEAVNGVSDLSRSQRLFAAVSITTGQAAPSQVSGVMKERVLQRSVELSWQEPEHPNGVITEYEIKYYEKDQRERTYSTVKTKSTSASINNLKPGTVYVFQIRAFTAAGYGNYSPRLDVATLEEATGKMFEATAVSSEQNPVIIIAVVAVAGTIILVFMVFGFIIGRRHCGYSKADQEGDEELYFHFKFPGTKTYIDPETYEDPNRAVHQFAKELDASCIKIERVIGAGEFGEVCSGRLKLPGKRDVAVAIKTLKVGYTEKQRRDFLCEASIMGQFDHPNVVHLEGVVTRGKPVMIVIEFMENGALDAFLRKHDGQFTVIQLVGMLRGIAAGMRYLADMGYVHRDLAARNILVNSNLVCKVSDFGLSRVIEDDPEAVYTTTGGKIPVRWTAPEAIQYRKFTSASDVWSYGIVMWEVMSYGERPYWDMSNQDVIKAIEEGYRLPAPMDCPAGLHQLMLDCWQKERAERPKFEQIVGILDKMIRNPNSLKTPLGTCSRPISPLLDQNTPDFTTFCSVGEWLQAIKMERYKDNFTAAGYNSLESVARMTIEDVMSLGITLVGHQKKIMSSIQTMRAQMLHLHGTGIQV
MSK1(h), sequence (O75582 whole entry): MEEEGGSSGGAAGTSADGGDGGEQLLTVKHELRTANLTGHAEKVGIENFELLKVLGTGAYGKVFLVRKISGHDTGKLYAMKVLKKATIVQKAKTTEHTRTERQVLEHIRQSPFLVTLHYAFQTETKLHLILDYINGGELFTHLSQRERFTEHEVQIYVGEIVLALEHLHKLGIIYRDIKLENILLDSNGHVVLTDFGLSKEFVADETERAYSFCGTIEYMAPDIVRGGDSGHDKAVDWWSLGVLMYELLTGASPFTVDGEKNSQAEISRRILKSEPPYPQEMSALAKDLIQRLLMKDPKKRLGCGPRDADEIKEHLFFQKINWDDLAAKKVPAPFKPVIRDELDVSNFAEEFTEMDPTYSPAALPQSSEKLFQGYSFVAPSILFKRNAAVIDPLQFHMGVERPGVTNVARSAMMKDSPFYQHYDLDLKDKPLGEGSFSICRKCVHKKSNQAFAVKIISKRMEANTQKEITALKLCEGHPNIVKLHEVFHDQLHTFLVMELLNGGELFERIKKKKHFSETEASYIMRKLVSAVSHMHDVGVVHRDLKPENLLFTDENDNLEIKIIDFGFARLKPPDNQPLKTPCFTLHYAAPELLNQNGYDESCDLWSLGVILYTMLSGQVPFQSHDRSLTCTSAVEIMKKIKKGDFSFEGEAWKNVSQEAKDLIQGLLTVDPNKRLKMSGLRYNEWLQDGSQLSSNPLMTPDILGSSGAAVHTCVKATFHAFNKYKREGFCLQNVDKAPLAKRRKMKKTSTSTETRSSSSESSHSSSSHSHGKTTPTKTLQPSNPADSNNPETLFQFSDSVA
Lyn(h), sequence (P07948 whole entry): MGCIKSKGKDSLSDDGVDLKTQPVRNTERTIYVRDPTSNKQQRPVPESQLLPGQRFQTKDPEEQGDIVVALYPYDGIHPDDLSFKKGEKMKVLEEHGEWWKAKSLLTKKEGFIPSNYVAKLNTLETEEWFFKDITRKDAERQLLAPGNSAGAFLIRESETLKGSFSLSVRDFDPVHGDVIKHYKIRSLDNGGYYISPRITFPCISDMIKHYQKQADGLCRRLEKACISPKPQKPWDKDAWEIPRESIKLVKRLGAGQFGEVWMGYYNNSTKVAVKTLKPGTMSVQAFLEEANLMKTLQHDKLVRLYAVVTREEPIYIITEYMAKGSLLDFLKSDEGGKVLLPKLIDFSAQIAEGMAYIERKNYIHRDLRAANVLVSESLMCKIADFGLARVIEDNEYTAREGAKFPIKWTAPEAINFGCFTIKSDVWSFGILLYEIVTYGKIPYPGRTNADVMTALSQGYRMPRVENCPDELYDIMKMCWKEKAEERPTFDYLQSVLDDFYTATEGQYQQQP
CaMKIIβ(h), sequence (Q13554 whole entry): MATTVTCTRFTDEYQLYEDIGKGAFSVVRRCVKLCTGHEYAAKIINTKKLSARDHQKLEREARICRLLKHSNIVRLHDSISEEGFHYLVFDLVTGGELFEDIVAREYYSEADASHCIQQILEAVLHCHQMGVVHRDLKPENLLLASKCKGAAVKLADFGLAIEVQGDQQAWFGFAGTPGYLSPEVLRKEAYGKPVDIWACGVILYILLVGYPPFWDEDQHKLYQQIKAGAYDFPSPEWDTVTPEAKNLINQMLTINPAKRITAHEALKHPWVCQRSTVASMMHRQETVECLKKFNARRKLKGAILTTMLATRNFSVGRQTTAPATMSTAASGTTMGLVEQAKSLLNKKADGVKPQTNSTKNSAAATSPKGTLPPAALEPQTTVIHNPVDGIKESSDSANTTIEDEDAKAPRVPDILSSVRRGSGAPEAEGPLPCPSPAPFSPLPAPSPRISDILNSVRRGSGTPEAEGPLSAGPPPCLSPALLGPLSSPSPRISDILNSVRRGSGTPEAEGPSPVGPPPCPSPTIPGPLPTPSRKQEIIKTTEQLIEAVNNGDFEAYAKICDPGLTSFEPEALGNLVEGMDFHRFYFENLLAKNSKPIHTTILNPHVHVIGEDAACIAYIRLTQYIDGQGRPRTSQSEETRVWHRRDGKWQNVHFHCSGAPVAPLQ

Row | Sequence | % activity (EphA7(h)) [%] | % activity (CaMKIIβ(h)) [%] | % activity (Lyn(h)) [%] | % activity (ZIPK(h)) [%] | % activity (EphA8(h)) [%] | % activity (TAO3(h)) [%] | % activity (MSK1(h)) [%] | % activity (Tec(h) activated) [%] | % activity (BRK(h)) [%]
1 | FAKLAARLYRKALARQLGVAA [MMI-0300] | 159 | 2 | 69 | 28 | 93 | 77 | 32 | 56 | 35
2 | YARAAARQARAKALNRQLGVA [MMI-0200] | 220 | 53 | 98 | 67 | 133 | – | 50 | 77 | 127
3 | KAFAKLAARLYRKALARQLGVAA [MMI-0400] | 222 | 11 | 3 | 13 | 146 | 67 | 28 | 29 | 18
4 | HRRIKAWLKKIKALARQLGVAA [MMI-0500] | 189 | 3 | 31 | 1 | 337 | 12 | 8 | 33 | 41
